The source of these data is paper PMC7477951 (Structure (London, England : 1993), 2019).

Experiment [1] concerns the target human HVEM (L39-C162) expressed in Drosophila S2 cells (human) (UniProt Q92956). Briefly: SPR. For orientation: In SPR one partner is held on a chip, and binding of the other changes the refractive index at the surface.
The target in experiment [2] is T1, HVEM part of the single-chain human CD160-HVEM (sc_CD160:HVEM) (human, UniProt Q92956 39-143).
T1 sequence: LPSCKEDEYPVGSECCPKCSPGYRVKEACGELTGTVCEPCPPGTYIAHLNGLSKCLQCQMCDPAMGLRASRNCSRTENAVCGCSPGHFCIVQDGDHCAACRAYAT
As to the kind of experiment: crystal structure.

Experiment [3] has as its target human LIGHT (L83-V240) expressed in Drosophila S2 cells (human, UniProt O43557 83-240). Briefly: SEC.

Chain of human LIGHT (L83-V240) expressed in Drosophila S2 cells (O43557 83-240): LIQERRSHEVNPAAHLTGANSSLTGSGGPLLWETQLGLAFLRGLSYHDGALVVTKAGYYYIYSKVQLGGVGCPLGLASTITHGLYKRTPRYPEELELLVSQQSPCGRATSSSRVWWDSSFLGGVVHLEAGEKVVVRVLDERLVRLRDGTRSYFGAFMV

A word on the Kd: it is the free concentration of one partner at which half of the binding sites on the other are occupied at equilibrium, for simple one-to-one binding. A higher Kd goes with weaker binding. On to “human CD160 ectodomain (I27-L158) expressed in Drosophila S2 cells (from UniProt O95971 27-158) (domain or fragment)”, for which, in experiment [1], the Kd turned out to be 6.7 µM.

In experiment [1], “refolded human CD160 ectodomain (residues I27-K144) (from UniProt O95971 27-144) (domain or fragment)” showed a dissociation constant Kd of 7.1 µM.

B1: CD160 part of the single-chain human CD160-HVEM (sc_CD160:HVEM) (domain or fragment)
chain: INITSSASQEGTRLNLICTVWHKKEEAEGFVVFLCKDRSGDCSPETSLKQLRLKRDPGIDGVGEISSQLMFTISQVTPLHSGTYQCCARSQKSGIRLQGHFFSILFTETGNYTVTGLK
modifications: glycosylated
What is called stoichiometry N is the number of molecules, sites or subunits per partner or assembly. Consider B1, for which the “stoichiometry N” value in experiment [2] is 1.

B2: human HVEM (L39-C162) expressed in Drosophila S2 cells (receptor, UniProt Q92956 39-162, looked up)
chain: LPSCKEDEYPVGSECCPKCSPGYRVKEACGELTGTVCEPCPPGTYIAHLNGLSKCLQCQMCDPAMGLRASRNCSRTENAVCGCSPGHFCIVQDGDHCAACRAYATSSPGQRVQKGGTESQDTLC
For B2, the binding result in experiment [3] is listed as “binds”.
